From paper PMC5886718

Tests used:
[1] = target: Glycine oxidase from Pseudoalteromonas luteoviolacea CPMOR-2 (PlGoxA) (Pseudoalteromonas luteoviolacea CPMOR-2); test: SEC
[2] = target: Glycine oxidase from Pseudoalteromonas luteoviolacea CPMOR-2 (PlGoxA) (Pseudoalteromonas luteoviolacea CPMOR-2); test: crystal structure

stoichiometry N [1]: 4 | stoichiometry N [2]: 4
Substance: Glycine oxidase from Pseudoalteromonas luteoviolacea CPMOR-2 (PlGoxA) (enzyme)
